Laboratory results from paper PMC4856149.
Read-outs that look alike come from different tables or passages of the source.

What was measured:
[1] = molecular target: recombinant GST-Arc (UniProt Q63053); test: Scatchard analysis
[2] = molecular target: recombinant GST-Arc (UniProt Q63053); test: Scatchard analysis; remark: listed apart in the source

Chain of UniProt Q63053 (Q63053 whole entry): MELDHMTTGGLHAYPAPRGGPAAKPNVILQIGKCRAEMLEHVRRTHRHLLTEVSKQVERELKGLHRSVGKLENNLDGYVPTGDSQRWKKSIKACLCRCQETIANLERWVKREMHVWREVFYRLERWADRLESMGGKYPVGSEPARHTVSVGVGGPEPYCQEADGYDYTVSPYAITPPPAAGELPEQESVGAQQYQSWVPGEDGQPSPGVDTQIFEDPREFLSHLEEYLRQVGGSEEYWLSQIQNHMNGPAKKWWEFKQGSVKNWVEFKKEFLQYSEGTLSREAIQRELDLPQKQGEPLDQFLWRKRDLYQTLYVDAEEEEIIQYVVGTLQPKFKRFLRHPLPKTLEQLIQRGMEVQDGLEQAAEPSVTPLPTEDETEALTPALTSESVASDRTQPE

Q: “recombinant CaMKIIα (from UniProt P11275 1-478) (enzyme)” was tested. Which Kd [1] did it give?
A: 60 µM

Q: What about the Kd [2] of the same substance?
A: 10 µM
